In experiment [1] the target is T1, VACV D8 protein (vaccinia virus, UniProt P04195 1-261).
T1 sequence: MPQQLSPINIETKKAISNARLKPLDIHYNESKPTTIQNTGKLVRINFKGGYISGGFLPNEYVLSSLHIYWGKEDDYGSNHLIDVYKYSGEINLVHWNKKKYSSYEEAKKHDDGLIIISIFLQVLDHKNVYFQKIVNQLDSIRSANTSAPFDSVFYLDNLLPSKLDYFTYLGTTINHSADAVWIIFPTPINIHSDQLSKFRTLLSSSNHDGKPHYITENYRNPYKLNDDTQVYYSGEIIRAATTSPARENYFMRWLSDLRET
The experiment can be described thus: lysate ELISA. Background: ELISA stands for enzyme-linked immunosorbent assay.

Experiment [2] addresses T1, VACV D8 protein. The experiment can be described thus: cell-based or functional assay.
Experiment [3] deals with T2, VACV B5 protein (vaccinia virus, UniProt Q01227 20-275). The experiment can be described thus: purified antigen ELISA.
In experiment [4] the target is T3, VACV A27 protein (vaccinia virus, UniProt P11258 1-110).
T3 sequence: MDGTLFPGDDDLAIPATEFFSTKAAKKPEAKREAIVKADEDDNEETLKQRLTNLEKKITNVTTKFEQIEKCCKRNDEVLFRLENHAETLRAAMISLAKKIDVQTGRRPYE
The experiment can be described thus: lysate ELISA.

The target of experiment [5] is T3, VACV A27 protein. The experiment can be described thus: purified antigen ELISA.
The next experiment concerns the target VACV A33 protein (vaccinia virus, UniProt P68617 58-185). The experiment can be described thus: purified antigen ELISA.
Experiment [6] deals with T2, VACV B5 protein. The experiment can be described thus: cell-based or functional assay.
The target in experiment [7] is T3, VACV A27 protein. The experiment can be described thus: cell-based or functional assay.

One may read the EC50 as the concentration that produces a half-maximal response. The low end stands for an effect from little substance, the high end for a need for much substance.

B1: VACV-8 (antibody, V domains shown)
VH: QVQLQQWGAGLLKPSETLSLTCAGYGGSFSGYFWSWIRQPPGKGLEWIGEINHSGSTDYNPSLKSRVTISLDTSKTQFSLKLSSVTAADTAVYYCARVMTGITNYYYYYGMDVWGQGTTVTF
VL: DIQLTQSPSFLSASVGDRVTITCRASQDISSYLAWYQQKPGKAPKLLIYAASTLQSGVPSRFSGSESGTEFTLTISSLQPENFATYYCQHLNSYPRGYTFGQGTKVDIK
notes: human IgG1, anti-D8
In the experiment with VACV D8 protein [1], B1 gave an EC50 of 0.04 µg/mL. Besides, in the experiment with VACV D8 protein [2], the “PRNT Emax, VACV MV+C'” value is 74% and the “PRNT IC50, VACV MV+C'” value worked out at 0.3 µg/mL.

B2: VACV-1 (antibody, V domains shown)
VH: EVQLVESGGGLVQPGESLKISCAASGFTFSSFSMNWVRQAPGKGLEWVSYISSSSSTIYYADSVKGRFTISRDNAKNSLYLQMNSLRDEDTAVYYCARRSVGCSGGNCYAYYYGMDVWGQGTTVTVS
VL: not shown
notes: human IgG1, anti-B5
Molecule B2 registered a half-maximal effective concentration (EC50) in the experiment with VACV B5 protein [3] of 0.02 µg/mL.

B3: VACV-154 (antibody, V domains shown)
VH: EVQLLESGGGLVQPGESLRLSCAASGFTLRNYAMSWVRQTPGKGLEWVSAISGSGGSTYYADSVKGRFTISRDTSKNTLYVQMNSLRAEDTAVYYCAKIRLDSSGYSGAFDIWGQGTRVTVSS
VL: SYELTQPPSVSVSPGQTARITCSGDALPKQYASWYQQKPGQAPVLVIYKDSERPSGIPERFSGSSSGTTVTLTISGVQAEDEADYYCQSADSSGTYPVVFGGGTQLTVL
notes: human IgG1, anti-A27
On to B3, for which the EC50 with VACV A27 protein [4] is above 0.1 µg/mL; with VACV A27 protein [5], 0.06 µg/mL.

B4: MPXV-39 (antibody, V domains shown)
VH: QVQLQQWGAGLLKPSETLSLTCAIYGGSLSGQYWSWIRQPPGRGLEWIGEIHHKGRTNYNPSLKSRVTISIDTSQRQFSLRLTSVSAADTAVYYCASGNYRLGQGTLVTF
VL: DVVLTQSPLTLPVTLGQPASISCRSSQSLVYSDGDTYLNWFQQRPGQAPRRLIYKVSKRDFGVPDRFSGSGSGTDFTLRISRVEAEDVGVYYCMQGTHWPRTFGQGTQVDIK
notes: human IgG3, anti-A33
On to B4, for which, in the experiment with VACV A33 protein, the concentration giving a half-maximal response (EC50) was determined as 0.07 µg/mL.

B5: MPXV-30 (antibody, V domains shown)
VH: QVQLVQSGAEVKKPGSSVKVSCKVSGGTFSSLAINWVRQAPGQGLEWMGGIIPIFGKANYAQKFQGRVSIIADESTSTAYMDLSSLRFEDTAVYYCATGGNIRVHDFDIWGQGTLVIVSS
VL: not shown
notes: human IgG1, anti-D8
With B5, in the experiment with VACV D8 protein [1], the concentration for a half-maximal effect (EC50) came to 0.004 µg/mL.

B6: VACV-136 (antibody, V domains shown)
V domain 1: QVTLKESGPVLVNPTETLTLTCTVSGFSLSNARMRVSWIRQPPGKALEWLAHIFSNDEKSYSTSLKSRLTISKDTSKSQVVLTMTNMDPVDTASYYCARMRGEYNSYYFDSWGQGTLVTVS
V domain 2: SYELTQPPSVSVSPGQTARITCSGDALPNQYAYWYQQKPGQAPVLVIYKDSERPSGIPERFSGSSSGTTVTLTISGVQAEDEADYYCQSADSSGTSVVFGGGTQVTV
notes: human IgG1, anti-D8
As for B6, in the experiment with VACV D8 protein [1], the concentration for a half-maximal effect (EC50) was 0.06 µg/mL. Besides, in the experiment with VACV D8 protein [2], the “PRNT Emax, VACV MV+C'” value came to 84% and the “PRNT IC50, VACV MV+C'” value was determined as 0.4 µg/mL.

B7: VACV-282 (antibody, V domains shown)
VH: EVQLVESGGGLVKPGGSLRLSCAASGFTFSSYSMNWVRQAPGKGLEWVSSISSISSYIYYADSVKGRFTISRDNAKNSLYLQMNSLRAEDTAVYYCARDRPRSRPNSGSYFWYYYGMDVW
VL: SYELTQPPSVSVAPGQTARITCGGNNIGSKSVHWYQQKPGQAPVLVVYDDSDRPSGIPERFSGSNSGNTATLTISRVEAGDEADYYCQVWDSNSDHRVSA
notes: human IgG1, anti-B5
B7: it took 0.155 µg/mL to reach a half-maximal effect in the experiment with VACV B5 protein [3] (EC50).

B8: MPXV-61 (antibody, V domains shown)
V domain 1: QVQLVQSGAEVKKPGSSVKVSCKASGETFSRYAFSWVRLAPGQGLEWLGRIIPFIDIPNYAQKFQGRVTITADKSTSTAYMELSSLRSEDTAVYYCASSLPSTYYFGSGNYPWGNWLDPWGQGTLVTVSS
V domain 2: QSVVTQPPSVSAAPGQNVTISCSGSSSNIGNNYVSWYHQLPGTAPKLLIYDNDKRPSGIPDRFSGSKSGTSATLGITGLQTGDEADYYCGTWDSSLSEVVFGGGTQVTVL
notes: human IgG1, anti-D8
Molecule B8 came in with a half-maximal effective concentration (EC50) with VACV D8 protein [1] of 0.007 µg/mL.

B9: VACV-303 (antibody, V domains shown)
VH: EVQLLESGGGLVQPGGSLRLSCAASGFTFSSYAMSWVRQAPGKGLEWVSAISGTGGNTYYADSVKGRFTISRDKSKNTLYLQMHSLRAEDTAVYYCATSLIWWLQSDYWGQGTLVTVSS
VL: DIQMTQSPSSLSASVGDRVTITCRASQSIASYLIWYQQKPGNAPKLLIYAASSLQSGVPSRFSGSGSGTDFTLTISSLQPEDFATYYCQQSYSTPQTFGQGTKVDIK
notes: human IgG1, anti-A27
As for B9, the half-maximal effective concentration (EC50) with VACV A27 protein [4] was 0.05 µg/mL; in the experiment with VACV A27 protein [5] it was 0.02 µg/mL.

B10: VACV-59 (antibody, V domains shown)
VH: QVQLVQSGGGLVKPGGSLRLSCAASGFTFSDYYMSWIRQAPGKGLEWVSYISTSGSTIYYADSVKGRFTISRDNAKNSLYLQMNSLRAEDTAMYYCARDGDGSGSYTPPYYYYGLDVWGQGTTVTVSS
VL: DIQMTQSPSSLSASVGDRVTITCRASQSIRNYLNWYQQKSGKAPKLLIYAASSLQSGVPSRFSGSGSGTDFTLTISSLHPEDFATYYCQQSYSTPPLTFGGGTKVEIK
notes: human IgG2, anti-B5
Turning to B10, the EC50 with VACV B5 protein [3] turned out to be 0.14 µg/mL. Further, in the experiment with VACV B5 protein [6], the “PRNT Emax, VACV EV+C'” value was determined as 72% and the “PRNT IC50, VACV EV+C'” value is 0.2 µg/mL.

B11: VACV-301 (antibody, V domains shown)
VH: EVQLLESGGGLVQPGGSLRLSCAASGFSFSSYAMSWVRQAPGKGLEWVSGIGNSGDRTFYADSAKGRFTIFRDNSNNRLYLQMNSLRAADTAVYYCAKWGRFESGAFWGQGVLVTVSS
VL: SYELTQSPSVSVSPGQTARITCSGDALPEQYAYWYQQKPGQAPVLVIYKDSERPSGIPERFSGSGSGTTVTLTITGVQAEDEADYYCQSADNSGTYEVFGTGTKVTVL
notes: human IgG3, anti-A27
In turn, B11 had an EC50 with VACV A27 protein [4] above 21 µg/mL. In the experiment with VACV A27 protein [5], this molecule showed an EC50 of 0.03 µg/mL. Also, in the experiment with VACV A27 protein [7], the “PRNT Emax, VACV MV” value was determined as 61%; the “PRNT Emax, VACV MV+C'” value stood at 77%; the “PRNT IC50, VACV MV” value turned out to be 0.5 µg/mL; the “PRNT IC50, VACV MV+C'” value amounted to 0.1 µg/mL.

B12: MPXV-96 (antibody, V domains shown)
VH: QVQLQQWGAGLLISSETLSLTCGVYGGSFSGYYWTWIRQPPGKGLEWIGEINYVGSTNYNPSLKSRVTMSVDTSKNHFSLSLSSVTAADTAVYYCARGLRGNSVCFDWGPGTLV
VL: ELVMTQSPATLSVSPGERASLSCRASQSVSSNLAWYQQKPGQAPRLLIYGASTRATGLPARFSGSGSGTEFTLTISSLQSEDFAIYYCQQYNNWPRTFGQGTKVDI
notes: human IgG1, anti-D8
As to B12, the 50% effective concentration (EC50) with VACV D8 protein [1] was determined as 0.001 µg/mL.

B13: VACV-230 (antibody, V domains shown)
VH: QVQLVQSGAEVKKPGASVKVSCKVSGYTLTELSMHWVRQAPGKGLEWLGGFDPEDGETIYAQKFQGRVTMTEDTSTDTAYMELSSLRSEDTAVYYCARESWLRGFDYWGQGTLVTVS
VL: not shown
notes: human IgG1, anti-D8
For the molecule B13, the concentration giving a half-maximal response (EC50) in the experiment with VACV D8 protein [1] was determined as 0.6 µg/mL. In the experiment with VACV D8 protein [2], the “PRNT Emax, VACV MV+C'” value came to 77% and the “PRNT IC50, VACV MV+C'” value was determined as 0.1 µg/mL.

B14: VACV-56 (antibody, V domains shown)
VH: QVQLQQWGAGLLKPSETLSLTCAVYGGSFSGYYWSWIRQPPGKGLEWIGEINHSGSTNYNPSLKSRVTISVDTSKSQFSLKLSSVTAADTAVYYCARATQGSGTYKLFFYSYGMDVWGQGTTVTVSS
VL: not shown
notes: human IgG1, anti-D8
For the molecule B14, the EC50 in the experiment with VACV D8 protein [1] stood at 0.01 µg/mL. Also, in the experiment with VACV D8 protein [2], the “PRNT Emax, VACV MV+C'” value is 81% and the “PRNT IC50, VACV MV+C'” value is 0.04 µg/mL.

B15: VACV-300 (antibody, V domains shown)
V domain 1: QVQLVQSGAEVKKPGSSVKVSCKASGGTFSSYAISWVRQAPGQGLEWMGGIIPIFGTANYAQKFQGRVTITADESTGTAYMELTSLRSEDTAIYYCARASEQWLASINWFDPWGQGTLVTVSS
V domain 2: QSALTQPASVSGSPGQSITISCTGTSSDVGSYNLVSWYQQHPGKAPKLMIYEVSKRPSGVSNRFSASKSGNTASLTISGLQAEDEADYYCCSYAGSSTLVFGGGTQVTVL
notes: human IgG1, anti-A27
Consider B15, for which the EC50 in the experiment with VACV A27 protein [4] was above 0.37 µg/mL; in the experiment with VACV A27 protein [5] it was 0.22 µg/mL.
